These results are taken from paper PMC9957770, “Mass spectrometry imaging–based assays for aminotransferase activity reveal a broad substrate spectrum for a previously uncharacterized enzyme” (The Journal of Biological Chemistry, 2023).

Common to all, as to test: purified protein
Holding throughout (format): biochemical, Arabidopsis thaliana

Substrate in series [1]: N[C@@H](Cc1c[nH]c2ccccc12)C(=O)O
Conditions: 0.2 mM PLP, 100 mM HEPES pH 8.0, 30 °C.

Substrate in series [2]: N[C@@H](Cc1c[nH]cn1)C(=O)O
Conditions: 20 mM alpha-ketoglutarate, 0.2 mM PLP, 100 mM HEPES pH 8.0, 30 °C.

Substrate in series [3]: N[C@@H](Cc1ccc(O)cc1)C(=O)O
Conditions: 0.2 mM PLP, 100 mM HEPES pH 8.0, 30 °C.

Substrate in series [4]: N[C@@H](Cc1ccccc1)C(=O)O
Conditions: 0.2 mM PLP, 100 mM HEPES pH 8.0, 30 °C.

B1: AtTAA1 (Arabidopsis thaliana) (protein)
chain: MVKLENSRKPEKISNKNIPMSDFVVNLDHGDPTAYEEYWRKMGDRCTVTIRGCDLMSYFSDMTNLCWFLEPELEDAIKDLHGVVGNAATEDRYIVVGTGSTQLCQAAVHALSSLARSQPVSVVAAAPFYSTYVEETTYVRSGMYKWEGDAWGFDKKGPYIELVTSPNNPDGTIRETVVNRPDDDEAKVIHDFAYYWPHYTPITRRQDHDIMLFTFSKITGHAGSRIGWALVKDKEVAKKMVEYIIVNSIGVSKESQVRTAKILNVLKETCKSESESENFFKYGREMMKNRWEKLREVVKESDAFTLPKYPEAFCNYFGKSLESYPAFAWLGTKEETDLVSELRRHKVMSRAGERCGSDKKHVRVSMLSREDVFNVFLERLANMKLIKSIDL
Take B1: the Km in series [1] (20 mM pyruvate) was found to be 1.2 ± 0.2 mM; in series [2], 11 ± 2 mM; in series [3] (20 mM pyruvate), 8 ± 3 mM; in series [4] (20 mM pyruvate) it was 13 ± 3 mM. The kcat in series [1] (20 mM pyruvate) is 4.2 ± 0.2 s⁻¹; in series [2], 0.6 ± 0.1 s⁻¹; in series [3] (20 mM pyruvate), 13.2 ± 0.3 s⁻¹; in series [4] (20 mM pyruvate), 2.0 ± 0.3 s⁻¹.

B2: AtTAR1 (Arabidopsis thaliana) (protein)
chain: MMVGCENSKKSDSGSNEDKSLSDDIINLDQGDPTAFQEYWMKKKDRCTVVIPAWDLMSYFSDTKNVCWFLEPELEKAIKALHGAIGNAATEERYIVVGTGSSQLCQAALFALSSLSEVKPVSIVAAVPYYSTYVEEASYLQSTLYKWEGDARTFDKKGPYIELVTSPNNPDGIMREPVVNRREGGKVIHDLAYYWPHYTPITRRQDHDLMLFTFSKITGHAGSRIGWALVKDIEVAKKMVHYLTINSIGVSKESQTRATTILNELTKTCRTQSESFFEYGYEKMKSRWERLREVVESGDAFTLPNYPQDFCNFFGKTLSTSPAFAWLGYKEERDLGSLLKEKKVLTRGGDRCGCNKRYVRVSMLSRDDDFDVSLQRLATIKDLKCVEP
With B2, the Km in series [1] (20 mM alpha-ketoglutarate) came out at 0.07 ± 0.02 mM; in series [2], 30 ± 6 mM; in series [3] (20 mM alpha-ketoglutarate) it was 1 ± 3 mM; in series [4] (20 mM alpha-ketoglutarate), 2.6 ± 0.3 mM. Moreover, the kcat was 4.5 ± 0.2 s⁻¹ in series [1] (20 mM alpha-ketoglutarate), 1.8 ± 0.1 s⁻¹ in series [2], 4.0 ± 0.3 s⁻¹ in series [3] (20 mM alpha-ketoglutarate) and 5.0 ± 0.2 s⁻¹ in series [4] (20 mM alpha-ketoglutarate).

A word on the Km: it is the concentration of substrate that gives half-maximal velocity. The kcat is the maximal rate divided by the concentration of active sites.
